This is an account of results in publication PMC6457497, “The H3K27me3 demethylase REF6 promotes leaf senescence through directly activating major senescence regulatory and functional genes in Arabidopsis”.

Data set [1] concerns the target T1, GST-REF6C (C2H2 ZnF domain) (Arabidopsis thaliana, UniProt Q9STM3 1239-1360).
T1 sequence: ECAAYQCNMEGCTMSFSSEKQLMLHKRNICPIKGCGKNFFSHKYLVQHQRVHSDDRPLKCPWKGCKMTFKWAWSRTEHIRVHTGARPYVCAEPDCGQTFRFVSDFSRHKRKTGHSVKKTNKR
As to the kind of experiment: EMSA; Light Shift EMSA kit binding buffer (composition, salt, pH not stated), poly(dI-dC), 4 ug protein in 20 ul, room temperature 30 min; 5% polyacrylamide gel with. Conditions: protein: recombinant; tags: N-terminal GST; label: biotin; blunt. For orientation: In EMSA bound probe runs differently from free probe, usually more slowly.

Data set [2] deals with T1, GST-REF6C (C2H2 ZnF domain). Description: EMSA; competed by excess unlabeled probe; Light Shift EMSA kit binding buffer (composition, salt, pH not stated), poly(dI-dC), 4 ug protein in 20 ul, room temperature 30 min; 5% polyacrylamide gel with. Conditions: protein: recombinant; tags: N-terminal GST; label: biotin; blunt.

B1: ORE1 WT probe (dsDNA)
DNA 1: TACTCGGATCCTCTGTTTTTACAAGACA
DNA 2: TGTCTTGTAAAAACAGAGGATCCGAGTA
B1: the binding result in data set [1] is listed as “binds”.

B2: NAP WT probe (dsDNA)
DNA 1: TTTCTCCAAACTCTGTTTTCTCTGTAAA
DNA 2: TTTACAGAGAAAACAGAGTTTGGAGAAA
As to B2, in data set [1], the binding result is “binds”.

B3: NYE2 WT probe (dsDNA)
DNA 1: CAAAAAGGGTCTCTGTATTTAGTTATTA
DNA 2: TAATAACTAAATACAGAGACCCTTTTTG
For the molecule B3, the binding result in data set [1] is “binds”.

B4: EIN2 WT probe (dsDNA)
DNA 1: AGGAACCATTCTCTGGATAAACCCTAGC
DNA 2: GCTAGGGTTTATCCAGAGAATGGTTCCT
Regarding B4, in data set [1], the binding result is “binds”.

B5: NYE1 WT probe (dsDNA)
DNA 1: AAAGGAGTCTCTCTGTATTTAGTGGCGT
DNA 2: ACGCCACTAAATACAGAGAGACTCCTTT
Consider B5, for which, in data set [2], the binding result is “binds”.
